The text below walks through data of patent US20180118786A1 (ECOLE POLYTECHNIQUE FEDERALE DE LAUSANNE EPFL, published 2018).

Sequences and labels used below:
B1: peptide 63 (bicyclic peptide without the C-terminal arginine) (peptide)
peptide: RCFRLPCRQLRC-NH2
modifications: linker 2-7-12 via TATA; N-terminus assumed
SMILES: CC(C)C[C@@H]1NC(=O)[C@H](CCC(N)=O)NC(=O)[C@H](CCCNC(=N)N)NC(=O)[C@@H]2CSCCC(=O)N3CN(CN(C3)C(=O)CCSC[C@H](NC(=O)[C@@H](N)CCCNC(=N)N)C(=O)N[C@@H](Cc3ccccc3)C(=O)N[C@@H](CCCNC(=N)N)C(=O)N[C@@H](CC(C)C)C(=O)N3CCC[C@H]3C(=O)N2)C(=O)CCSC[C@@H](C(N)=O)NC(=O)[C@H](CCCNC(=N)N)NC1=O
B2: peptide 62 (bicyclic peptide without the N-terminal arginine) (peptide)
peptide: CFRLPCRQLRCR-NH2
modifications: linker 1-6-11 via TATA; N-terminus assumed
SMILES: CC(C)C[C@@H]1NC(=O)[C@H](CCC(N)=O)NC(=O)[C@H](CCCNC(=N)N)NC(=O)[C@@H]2CSCCC(=O)N3CN(CN(C3)C(=O)CCSC[C@H](N)C(=O)N[C@@H](Cc3ccccc3)C(=O)N[C@@H](CCCNC(=N)N)C(=O)N[C@@H](CC(C)C)C(=O)N3CCC[C@H]3C(=O)N2)C(=O)CCSC[C@@H](C(=O)N[C@@H](CCCNC(=N)N)C(N)=O)NC(=O)[C@H](CCCNC(=N)N)NC1=O
B3: peptide 52 (peptide 2, methyl group in meta-position of the phenyl ring of Phe3) (peptide)
peptide: RC[Phe(3-Me)]RLPCRQLRCRW-NH2
modifications: linker 2-7-12 via TATA; N-terminus assumed
SMILES: Cc1cccc(C[C@@H]2NC(=O)[C@@H](NC(=O)[C@@H](N)CCCNC(=N)N)CSCCC(=O)N3CN4CN(C3)C(=O)CCSC[C@H](NC(=O)[C@@H]3CCCN3C(=O)[C@H](CC(C)C)NC(=O)[C@H](CCCNC(=N)N)NC2=O)C(=O)N[C@@H](CCCNC(=N)N)C(=O)N[C@@H](CCC(N)=O)C(=O)N[C@@H](CC(C)C)C(=O)N[C@@H](CCCNC(=N)N)C(=O)N[C@H](C(=O)N[C@@H](CCCNC(=N)N)C(=O)N[C@@H](Cc2c[nH]c3ccccc23)C(N)=O)CSCCC4=O)c1
B4: peptide 60 (peptide 2, nitro group in para position of Phe3) (peptide)
peptide: RC[Phe(4-NO2)]RLPCRQLRCRW-NH2
modifications: linker 2-7-12 via TATA; also: description names 2-nitro-phenylalanine, example says para
B5: peptide 54 (peptide 2, carbon replaced with nitrogen in meta-position of the phenyl ring of Phe3) (peptide)
peptide: RC[3Pal]RLPCRQLRCRW-NH2
modifications: linker 2-7-12 via TATA; N-terminus assumed
SMILES: CC(C)C[C@@H]1NC(=O)[C@H](CCC(N)=O)NC(=O)[C@H](CCCNC(=N)N)NC(=O)[C@@H]2CSCCC(=O)N3CN(CN(C3)C(=O)CCSC[C@H](NC(=O)[C@@H](N)CCCNC(=N)N)C(=O)N[C@@H](Cc3cccnc3)C(=O)N[C@@H](CCCNC(=N)N)C(=O)N[C@@H](CC(C)C)C(=O)N3CCC[C@H]3C(=O)N2)C(=O)CCSC[C@@H](C(=O)N[C@@H](CCCNC(=N)N)C(=O)N[C@@H](Cc2c[nH]c3ccccc23)C(N)=O)NC(=O)[C@H](CCCNC(=N)N)NC1=O
B6: peptide 2 (FXII618 with a tryptophan appended to the C-terminus) (peptide)
peptide: RCFRLPCRQLRCRW-NH2
modifications: linker 2-7-12 via TATA; N-terminus assumed
SMILES: CC(C)C[C@@H]1NC(=O)[C@H](CCC(N)=O)NC(=O)[C@H](CCCNC(=N)N)NC(=O)[C@@H]2CSCCC(=O)N3CN(CN(C3)C(=O)CCSC[C@H](NC(=O)[C@@H](N)CCCNC(=N)N)C(=O)N[C@@H](Cc3ccccc3)C(=O)N[C@@H](CCCNC(=N)N)C(=O)N[C@@H](CC(C)C)C(=O)N3CCC[C@H]3C(=O)N2)C(=O)CCSC[C@@H](C(=O)N[C@@H](CCCNC(=N)N)C(=O)N[C@@H](Cc2c[nH]c3ccccc23)C(N)=O)NC(=O)[C@H](CCCNC(=N)N)NC1=O
B7: peptide 10 (peptide 2, Arg4 to lysine) (peptide)
peptide: RCFKLPCRQLRCRW-NH2
modifications: linker 2-7-12 via TATA; N-terminus assumed
SMILES: CC(C)C[C@@H]1NC(=O)[C@H](CCC(N)=O)NC(=O)[C@H](CCCNC(=N)N)NC(=O)[C@@H]2CSCCC(=O)N3CN(CN(C3)C(=O)CCSC[C@H](NC(=O)[C@@H](N)CCCNC(=N)N)C(=O)N[C@@H](Cc3ccccc3)C(=O)N[C@@H](CCCCN)C(=O)N[C@@H](CC(C)C)C(=O)N3CCC[C@H]3C(=O)N2)C(=O)CCSC[C@@H](C(=O)N[C@@H](CCCNC(=N)N)C(=O)N[C@@H](Cc2c[nH]c3ccccc23)C(N)=O)NC(=O)[C@H](CCCNC(=N)N)NC1=O
B8: peptide 3 (peptide 2, Phe3 to tryptophan) (peptide)
peptide: RCWRLPCRQLRCRW-NH2
modifications: linker 2-7-12 via TATA; N-terminus assumed
SMILES: CC(C)C[C@@H]1NC(=O)[C@H](CCC(N)=O)NC(=O)[C@H](CCCNC(=N)N)NC(=O)[C@@H]2CSCCC(=O)N3CN(CN(C3)C(=O)CCSC[C@H](NC(=O)[C@@H](N)CCCNC(=N)N)C(=O)N[C@@H](Cc3c[nH]c4ccccc34)C(=O)N[C@@H](CCCNC(=N)N)C(=O)N[C@@H](CC(C)C)C(=O)N3CCC[C@H]3C(=O)N2)C(=O)CCSC[C@@H](C(=O)N[C@@H](CCCNC(=N)N)C(=O)N[C@@H](Cc2c[nH]c3ccccc23)C(N)=O)NC(=O)[C@H](CCCNC(=N)N)NC1=O
B9: peptide 67 (FXII618, Arg1 to lysine) (peptide)
peptide: KCFRLPCRQLRCR-NH2
modifications: linker 2-7-12 via TATA; N-terminus assumed
SMILES: CC(C)C[C@@H]1NC(=O)[C@H](CCC(N)=O)NC(=O)[C@H](CCCNC(=N)N)NC(=O)[C@@H]2CSCCC(=O)N3CN(CN(C3)C(=O)CCSC[C@H](NC(=O)[C@@H](N)CCCCN)C(=O)N[C@@H](Cc3ccccc3)C(=O)N[C@@H](CCCNC(=N)N)C(=O)N[C@@H](CC(C)C)C(=O)N3CCC[C@H]3C(=O)N2)C(=O)CCSC[C@@H](C(=O)N[C@@H](CCCNC(=N)N)C(N)=O)NC(=O)[C@H](CCCNC(=N)N)NC1=O
B10: peptide 56 (peptide 2, fluorine in ortho-position of Phe3) (peptide)
peptide: RC[Phe(2-F)]RLPCRQLRCRW-NH2
modifications: linker 2-7-12 via TATA; N-terminus assumed
SMILES: CC(C)C[C@@H]1NC(=O)[C@H](CCC(N)=O)NC(=O)[C@H](CCCNC(=N)N)NC(=O)[C@@H]2CSCCC(=O)N3CN(CN(C3)C(=O)CCSC[C@H](NC(=O)[C@@H](N)CCCNC(=N)N)C(=O)N[C@@H](Cc3ccccc3F)C(=O)N[C@@H](CCCNC(=N)N)C(=O)N[C@@H](CC(C)C)C(=O)N3CCC[C@H]3C(=O)N2)C(=O)CCSC[C@@H](C(=O)N[C@@H](CCCNC(=N)N)C(=O)N[C@@H](Cc2c[nH]c3ccccc23)C(N)=O)NC(=O)[C@H](CCCNC(=N)N)NC1=O
B11: peptide 41 (peptide 2, Arg4 to 4-guanidinophenylalanine) (peptide)
peptide: RCF[Phe(4-guanidino)]LPCRQLRCRW-NH2
modifications: linker 2-7-12 via TATA; N-terminus assumed
SMILES: CC(C)C[C@@H]1NC(=O)[C@H](CCC(N)=O)NC(=O)[C@H](CCCNC(=N)N)NC(=O)[C@@H]2CSCCC(=O)N3CN(CN(C3)C(=O)CCSC[C@H](NC(=O)[C@@H](N)CCCNC(=N)N)C(=O)N[C@@H](Cc3ccccc3)C(=O)N[C@@H](Cc3ccc(NC(=N)N)cc3)C(=O)N[C@@H](CC(C)C)C(=O)N3CCC[C@H]3C(=O)N2)C(=O)CCSC[C@@H](C(=O)N[C@@H](CCCNC(=N)N)C(=O)N[C@@H](Cc2c[nH]c3ccccc23)C(N)=O)NC(=O)[C@H](CCCNC(=N)N)NC1=O
notes: Number tied to residue by the order of the list
B12: peptide 26 (peptide 2, Leu10 to isoleucine) (peptide)
peptide: RCFRLPCRQIRCRW-NH2
modifications: linker 2-7-12 via TATA; N-terminus assumed
SMILES: CC[C@H](C)[C@@H]1NC(=O)[C@H](CCC(N)=O)NC(=O)[C@H](CCCNC(=N)N)NC(=O)[C@@H]2CSCCC(=O)N3CN(CN(C3)C(=O)CCSC[C@H](NC(=O)[C@@H](N)CCCNC(=N)N)C(=O)N[C@@H](Cc3ccccc3)C(=O)N[C@@H](CCCNC(=N)N)C(=O)N[C@@H](CC(C)C)C(=O)N3CCC[C@H]3C(=O)N2)C(=O)CCSC[C@@H](C(=O)N[C@@H](CCCNC(=N)N)C(=O)N[C@@H](Cc2c[nH]c3ccccc23)C(N)=O)NC(=O)[C@H](CCCNC(=N)N)NC1=O
B13: peptide 40 (peptide 2, Arg4 to norarginine) (peptide)
peptide: RCF[Agb]LPCRQLRCRW-NH2
modifications: linker 2-7-12 via TATA
notes: as for B11
B14: peptide 39 (peptide 2, Arg4 to homoarginine) (peptide)
peptide: H-RCF[hArg]LPCRQLRCRW-NH2
modifications: linker 2-7-12 via TATA
notes: as for B11
B15: peptide 9 (peptide 2, Phe3 to proline) (peptide)
peptide: RCPRLPCRQLRCRW-NH2
modifications: linker 2-7-12 via TATA; N-terminus assumed
SMILES: CC(C)C[C@@H]1NC(=O)[C@H](CCC(N)=O)NC(=O)[C@H](CCCNC(=N)N)NC(=O)[C@@H]2CSCCC(=O)N3CN(CN(C3)C(=O)CCSC[C@H](NC(=O)[C@@H](N)CCCNC(=N)N)C(=O)N3CCC[C@H]3C(=O)N[C@@H](CCCNC(=N)N)C(=O)N[C@@H](CC(C)C)C(=O)N3CCC[C@H]3C(=O)N2)C(=O)CCSC[C@@H](C(=O)N[C@@H](CCCNC(=N)N)C(=O)N[C@@H](Cc2c[nH]c3ccccc23)C(N)=O)NC(=O)[C@H](CCCNC(=N)N)NC1=O
notes: as for B11

Starred links: 1 amine or outer side, 2 acyl side, 3 side chain; linkers in the order of their positions; H or OH if unused. Positions of bridges follow the written chain, without caps; N, C: chain ends. Non-standard residues stand in square brackets, D forms with d. No end group written: not given here. TATA = O=C(CC[*:1])N1CN(C(=O)CC[*:2])CN(C(=O)CC[*:3])C1; Phe(4-NO2) = N[C@@H](Cc1ccc([N+](=O)[O-])cc1)C(=O)O; Phe(4-guanidino) = N=C(N)Nc1ccc(C[C@H](N)C(=O)O)cc1; Phe(3-Me) = Cc1cccc(C[C@H](N)C(=O)O)c1; Phe(4-F) = N[C@@H](Cc1ccc(F)cc1)C(=O)O; Phe(2-F) = N[C@@H](Cc1ccccc1F)C(=O)O; hArg = N=C(N)NCCCC[C@H](N)C(=O)O; 3Pal = N[C@@H](Cc1cccnc1)C(=O)O; Agb = N=C(N)NCC[C@H](N)C(=O)O

T1 sequence (P00748 373-615 limits assumed, one chain of several): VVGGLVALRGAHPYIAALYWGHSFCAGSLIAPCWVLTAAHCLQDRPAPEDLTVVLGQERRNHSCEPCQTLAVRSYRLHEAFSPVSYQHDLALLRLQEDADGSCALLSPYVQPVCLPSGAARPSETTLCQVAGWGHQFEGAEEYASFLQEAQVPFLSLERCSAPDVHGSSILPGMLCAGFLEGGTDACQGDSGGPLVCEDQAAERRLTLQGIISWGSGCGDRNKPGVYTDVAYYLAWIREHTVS

One assay addresses T1, human β-FXIIa (HFXIIAB; Molecular Innovations) (human, UniProt P00748 354-362; P00748 373-615, limits assumed).
T1 construct: domain: catalytic domain; Bought; also called human b-FXIIa; human FXIIa
Nature of the assay: protease inhibition assay, fluorogenic substrate.
Consider B1, for which the Ki (usually a dissociation constant, usually derived from enzyme kinetics or from competition with a known ligand) is 0.0288 µM.
The molecule B2 came in with a Ki of 0.932 µM.
Consider B3, for which affinity was put at a Ki of 0.0104 µM.
B4 gave an inhibition constant Ki of 0.0045 µM.
As to B5, the inhibitory constant (Ki) amounted to 0.0084 µM.
In the case of B6, the Ki stood at 0.026 µM. Compared with the last molecule, the Ki is about 3.1-fold higher.
Still for that read-out and setting: then B7, with 0.283 µM; and B8, with 0.026 µM.
Consider RC[Phe(4-F)]RLPCRQLRCRW-NH2 (linker 2-7-12 via TATA) [peptide 58 (peptide 2, fluorine in para-position of Phe3)], for which affinity was put at a Ki of 0.00231 µM.
Molecule B9 returned a Ki of 0.0274 µM.
Molecule B10 displayed a Ki of 0.0131 µM.

The target of the next assay is T1, human β-FXIIa (HFXIIAB; Molecular …). Nature of the assay: protease inhibition assay.
On to H-RCF[homolysine]LPCRQLRCRW-NH2 (linker 2-7-12 via TATA) [peptide 38 (peptide 2, Arg4 to homolysine)], for which the “fold reduction of affinity vs peptide 2” value is not below 5 fold.
For B11, the “fold reduction of affinity vs peptide 2” value is not below 5 fold.
In the case of B7, the “fold reduction of activity vs peptide 2” value stood at 10 fold.
Regarding B12, the “fold reduction of activity vs peptide 2” value worked out at 8 fold.
As to B13, the “fold reduction of affinity vs peptide 2” value is not below 5 fold.
B14: the “fold reduction of affinity vs peptide 2” value is not below 5 fold.

The target is the same in the next assay. Nature of the assay: protease inhibition assay (Table in FIG. 6).
Consider B15, for which the Ki is less than 0.1 µM.
